Results taken from publication PMC12138128, “Thermal proteome profiling (TPP) reveals NAMPT as the anti-glioma target of phenanthroindolizidine alkaloid PF403” (Acta Pharmaceutica Sinica. B, 2025).

Target: the molecule itself
Assay: crystal structure; cocrystal of recombinant NAMPT with the small molecule PF403, hanging drop vapor diffusion, 1.86 Å; NAMPT seen as a dimer with two PF403 molecules

B1: nicotinamide phosphoribosyl transferase (NAMPT), recombinant, His-tagged (enzyme, human)
chain: MNPAAEAEFNILLATDSYKVTHYKQYPPNTSKVYSYFECREKKTENSKLRKVKYEETVFYGLQYILNKYLKGKVVTKEKIQEAKDVYKEHFQDDVFNEKGWNYILEKYDGHLPIEIKAVPEGFVIPRGNVLFTVENTDPECYWLTNWIETILVQSWYPITVATNSREQKKILAKYLLETSGNLDGLEYKLHDFGYRGVSSQETAGIGASAHLVNFKGTDTVAGLALIKKYYGTKDPVPGYSVPAAEHSTITAWGKDHEKDAFEHIVTQFSSVPVSVVSDSYDIYNACEKIWGEDLRHLIVSRSTQAPLIIRPDSGNPLDTVLKVLEILGKKFPVTENSKGYKLLPPYLRVIQGDGVDINTLQEIVEGMKQKMWSIENIAFGSGGGLLQKLTRDLLNCSFKCSYVVTNGLGINVFKDPVADPNKRSKKGRLSLHRTPAGNFVTLEEGKGDLEEYGQDLLHTVFKNGKVTKSYSFDEIRKNAQLNIELEAAHH
notes: nicotinamide phosphoribosyl transferase (NAMPT), human; Dimer in the cocrystal structure with the small molecule PF403 (PDB 8Y55); also called recombinant NAMPT; WT NAMPT; source: E. coli BL21 (DE3), pET-28a(+), purified (Ni-NTA)
  binding result: binds
